Experimental data from patent publication US20190111149A1, “ANTI-EGFR ANTIBODY DRUG CONJUGATE” (priority 2016, published 2019).

Key:
[1] = biological target: MBI_CD19_1; (SAR3419); experiment: BLI Octet, antibody on anti-human Fc tip, peptide […]
[2] = biological target: MBI_CD19_2; (MOR208); experiment: as above
[3] = biological target: Meditope enabled Clivatuzumab; experiment: as above
[4] = biological target: Meditope enabled Ocaratuzumab; experiment: as above
[5] = biological target: Photo optimized trastuzumab; meditope enabled (Tmab); experiment: as above
[6] = biological target: MBI_CD19_1; (SAR3419); experiment: BLI Octet, antibody on anti-human Fc tip, peptide 37 nM
[7] = biological target: MBI_CD19_2; (MOR208); experiment: as above
[8] = biological target: Meditope enabled Ocaratuzumab; experiment: as above
[9] = biological target: Photo optimized trastuzumab; meditope enabled (Tmab); experiment: as above
[10] = biological target: MBI_CD19_1; (SAR3419); experiment: BLI Octet, antibody on anti-human Fc tip, peptide 333 nM
[11] = biological target: MBI_CD19_2; (MOR208); experiment: as above
[12] = biological target: Meditope enabled Clivatuzumab; experiment: as above
[13] = biological target: Photo optimized trastuzumab; meditope enabled (Tmab); experiment: as above

MBI_CD19_1; (SAR3419), sequence (chain, as listed by the source, chain 1 of 2): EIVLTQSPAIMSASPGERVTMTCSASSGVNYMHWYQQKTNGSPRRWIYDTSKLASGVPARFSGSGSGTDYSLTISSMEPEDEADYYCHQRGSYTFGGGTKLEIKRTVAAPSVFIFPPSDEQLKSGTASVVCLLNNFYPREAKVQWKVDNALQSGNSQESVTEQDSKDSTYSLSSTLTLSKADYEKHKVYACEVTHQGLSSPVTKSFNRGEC
MBI_CD19_1; (SAR3419), sequence (chain, as listed by the source, chain 2 of 2): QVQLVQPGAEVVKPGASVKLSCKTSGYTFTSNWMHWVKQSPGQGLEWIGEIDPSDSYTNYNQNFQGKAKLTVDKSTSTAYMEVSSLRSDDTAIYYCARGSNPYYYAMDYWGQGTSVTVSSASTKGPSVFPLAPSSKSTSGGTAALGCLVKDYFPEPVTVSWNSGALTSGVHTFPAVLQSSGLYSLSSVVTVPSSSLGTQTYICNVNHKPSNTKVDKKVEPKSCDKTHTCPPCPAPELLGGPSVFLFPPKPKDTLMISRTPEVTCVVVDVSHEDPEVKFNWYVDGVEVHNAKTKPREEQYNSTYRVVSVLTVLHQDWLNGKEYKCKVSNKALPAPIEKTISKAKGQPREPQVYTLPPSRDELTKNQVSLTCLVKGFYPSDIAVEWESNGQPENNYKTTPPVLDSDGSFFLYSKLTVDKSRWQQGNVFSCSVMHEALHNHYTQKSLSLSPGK
Photo optimized trastuzumab; meditope enabled (Tmab), sequence (chain, as listed by the source, chain 1 of 2): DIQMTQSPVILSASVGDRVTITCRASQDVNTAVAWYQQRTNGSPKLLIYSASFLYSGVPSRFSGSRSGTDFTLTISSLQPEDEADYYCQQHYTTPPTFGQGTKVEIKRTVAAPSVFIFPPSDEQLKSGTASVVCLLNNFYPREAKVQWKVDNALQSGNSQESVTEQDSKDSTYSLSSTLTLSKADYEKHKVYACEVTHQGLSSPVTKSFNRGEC
Photo optimized trastuzumab; meditope enabled (Tmab), sequence (chain, as listed by the source, chain 2 of 2): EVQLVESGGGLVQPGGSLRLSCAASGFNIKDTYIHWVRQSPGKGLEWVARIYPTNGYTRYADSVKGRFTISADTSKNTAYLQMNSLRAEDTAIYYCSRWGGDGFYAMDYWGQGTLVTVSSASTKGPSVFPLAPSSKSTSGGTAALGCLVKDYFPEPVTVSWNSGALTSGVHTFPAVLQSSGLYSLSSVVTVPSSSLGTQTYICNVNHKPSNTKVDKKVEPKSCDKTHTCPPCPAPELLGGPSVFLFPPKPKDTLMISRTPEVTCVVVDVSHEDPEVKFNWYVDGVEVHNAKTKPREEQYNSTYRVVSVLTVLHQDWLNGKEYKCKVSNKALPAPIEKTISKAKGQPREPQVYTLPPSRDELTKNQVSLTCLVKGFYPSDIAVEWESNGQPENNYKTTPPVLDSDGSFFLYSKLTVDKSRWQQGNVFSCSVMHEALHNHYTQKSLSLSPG
MBI_CD19_2; (MOR208), sequence (chain, as listed by the source, chain 1 of 2): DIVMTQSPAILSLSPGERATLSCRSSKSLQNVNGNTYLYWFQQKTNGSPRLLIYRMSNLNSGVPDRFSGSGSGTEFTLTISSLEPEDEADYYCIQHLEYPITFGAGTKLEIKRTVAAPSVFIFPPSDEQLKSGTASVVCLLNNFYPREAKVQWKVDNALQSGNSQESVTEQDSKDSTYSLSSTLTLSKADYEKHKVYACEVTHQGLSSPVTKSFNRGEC
MBI_CD19_2; (MOR208), sequence (chain, as listed by the source, chain 2 of 2): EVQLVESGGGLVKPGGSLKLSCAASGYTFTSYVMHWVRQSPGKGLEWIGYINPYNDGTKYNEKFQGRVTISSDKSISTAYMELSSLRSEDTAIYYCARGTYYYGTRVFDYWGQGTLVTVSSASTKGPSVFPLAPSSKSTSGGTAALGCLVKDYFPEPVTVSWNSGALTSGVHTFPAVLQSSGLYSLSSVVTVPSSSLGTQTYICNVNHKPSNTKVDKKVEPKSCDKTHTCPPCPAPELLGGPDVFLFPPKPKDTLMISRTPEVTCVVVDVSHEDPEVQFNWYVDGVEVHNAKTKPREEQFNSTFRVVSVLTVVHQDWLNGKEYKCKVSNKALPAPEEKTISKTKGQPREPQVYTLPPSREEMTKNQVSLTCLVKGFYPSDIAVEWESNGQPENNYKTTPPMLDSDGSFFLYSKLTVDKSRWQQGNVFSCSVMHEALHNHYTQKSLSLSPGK
Meditope enabled Ocaratuzumab, sequence (chain, as listed by the source, chain 1 of 2): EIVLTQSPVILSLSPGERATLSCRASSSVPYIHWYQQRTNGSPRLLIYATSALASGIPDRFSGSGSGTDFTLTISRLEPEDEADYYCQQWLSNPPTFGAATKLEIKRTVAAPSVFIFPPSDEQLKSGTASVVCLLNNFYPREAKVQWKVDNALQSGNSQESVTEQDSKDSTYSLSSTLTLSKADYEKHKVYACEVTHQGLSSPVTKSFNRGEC
Meditope enabled Ocaratuzumab, sequence (chain, as listed by the source, chain 2 of 2): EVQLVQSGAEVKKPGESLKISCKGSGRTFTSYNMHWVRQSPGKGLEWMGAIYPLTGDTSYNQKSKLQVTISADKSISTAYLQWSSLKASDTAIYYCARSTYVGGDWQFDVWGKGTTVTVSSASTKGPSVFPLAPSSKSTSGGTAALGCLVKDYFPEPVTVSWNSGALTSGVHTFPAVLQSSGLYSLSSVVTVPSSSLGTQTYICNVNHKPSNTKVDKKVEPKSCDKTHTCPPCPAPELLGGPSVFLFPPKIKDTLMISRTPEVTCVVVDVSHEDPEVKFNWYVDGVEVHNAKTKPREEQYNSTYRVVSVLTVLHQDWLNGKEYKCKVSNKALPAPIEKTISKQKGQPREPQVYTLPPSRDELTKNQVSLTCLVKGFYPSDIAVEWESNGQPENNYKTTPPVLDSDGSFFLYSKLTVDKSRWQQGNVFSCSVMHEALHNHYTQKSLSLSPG
Meditope enabled Clivatuzumab, sequence (chain, as listed by the source, chain 1 of 2): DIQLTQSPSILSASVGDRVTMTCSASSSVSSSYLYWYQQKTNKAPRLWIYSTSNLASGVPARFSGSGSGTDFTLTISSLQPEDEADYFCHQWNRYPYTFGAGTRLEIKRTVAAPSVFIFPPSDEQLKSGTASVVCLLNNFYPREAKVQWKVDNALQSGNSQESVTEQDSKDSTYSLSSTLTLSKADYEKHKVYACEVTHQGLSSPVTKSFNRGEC
Meditope enabled Clivatuzumab, sequence (chain, as listed by the source, chain 2 of 2): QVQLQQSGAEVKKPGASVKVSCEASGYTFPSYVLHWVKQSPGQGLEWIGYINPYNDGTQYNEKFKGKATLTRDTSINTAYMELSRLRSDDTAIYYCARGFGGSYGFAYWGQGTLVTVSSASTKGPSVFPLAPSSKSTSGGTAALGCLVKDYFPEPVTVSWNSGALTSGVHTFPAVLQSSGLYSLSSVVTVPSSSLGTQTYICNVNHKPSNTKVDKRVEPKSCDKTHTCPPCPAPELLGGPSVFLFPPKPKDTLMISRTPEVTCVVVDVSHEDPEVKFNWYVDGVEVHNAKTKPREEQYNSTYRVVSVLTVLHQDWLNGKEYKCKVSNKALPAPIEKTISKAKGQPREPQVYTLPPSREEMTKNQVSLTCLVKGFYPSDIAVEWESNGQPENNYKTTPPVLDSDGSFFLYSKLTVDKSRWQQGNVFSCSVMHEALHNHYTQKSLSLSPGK

Q: What does the source list for CQFDLSTRRLRC (modifications not checked) [Peptide 22: DM1 conjugated cQFD (cQFD-DM1)]?
A: Kd [1]: < 1 pM; Kd [2]: 0.452 nM; Kd [3]: 3.16 µM; Kd [4]: < 1 pM; Kd [5]: 1.88 nM; Kd [6]: < 1 pM; Kd [7]: < 1 pM; Kd [8]: < 1 pM; Kd [9]: 2.62 nM; Kd [10]: 5.23 nM; Kd [11]: < 1 pM; Kd [12]: 2.69 nM; Kd [13]: 1.63 nM
